The text below walks through data of the DeepSol protein solubility set.

The data set is described as follows: soluble on expression in E. coli; label from the status in PepcDB or PDB records.
Turning to “MIILKLEDSWGFQISKIAQEMDSQFSKKLTKYDIGSREYGILLTIHQYALLTQLKIGELNKVDRTTIGQLVDLLERKDFVARQKNPKDRRQNLLVLTKTGRSLAEEMWQEMKEIEKDVLKHLSAKQKETLLTMVKAIRKGELN”, the “soluble on expression in E. coli” value is “not soluble”.

Regarding “MIILQGNKLERSFSGDVLFQNISLQVDERDRIALVGPNGAGKSTLLKLLVGEETPTSGEVNTKKDLTLSYLAQNSRFESDQTIYEEMLKVFEALRQDEKRLRQMEMDMATVSGQVLTRLMTDYDLLTEHFRQQGGFTYESDIKAILNGFKFDESMWQMTIAELSGGQNTRLALAKMLLEKPELLVLDEPTNHLDIETIAWLENYLANYQGALIIVSHDRYFLDKVATVTLDLTPNGLDRYSGNYSRFMALKAEKLVAEEKQFDKQQKEIAKLEDFVQKNIVRASTTKRAQARRKQLEKIERLDKPTGGRKSAHMTFHAEKPSGNVVLRVEEAAIGYGDQVLSEPINVDINKLDAIAVVGPNGIGKSTLIKSIIGQLPLLKGQLKYGANVETGYYDQTQSHLTSSNTVLEELWQDFSTTPEVDIRNRLGAFLFSGDDVKKSVAMLSGGEKARLLLAKLSMENNNFLVLDEPTNHLDIDSKEVLENALIDFDGTLLFVSHDRYFINRLATKVLEITENGSTLYLGDYDYYLEKKAELEELARLAAGETVEETKEASATDYQLQKANQKERRRLTRRYEEIEARLETIEERIGAIQEDMHASNDTAQLIAWQKEWDQLDQEQEALMEEWETIAEQIES”, the “soluble on expression in E. coli” value is “not soluble”.

As for “MIISEFDRNNPVLKDQLSDLLRLTWPEEYGDSSAEEVEEMMNPERIAVAAVDQDELVGFIGAIPQYGITGWELHPLVVESSRRKNQIGTRLVNYLEKEVASRGGITIYLGTDDLDHGTTLSQTDLYEHTFDKVASIQNLREHPYEFYEKLGYKIVGVLPNANGWDKPDIWMAKTIIPRPD”, the “soluble on expression in E. coli” value was “soluble”.

On to “MIKAIFTRQKNGQLSSVTLTGHAGSGKHGFDIVCASVSTLAINFVNSLEVLADCQALVDLNDVEGGYMAITIPPHDNKEEVQLLFESFLLGMTSLAKDSSKFVNTQVI”, for which the “soluble on expression in E. coli” value is reported as “not soluble”.

Turning to “MIKGIGLDMIDLERVKQVVEKNPRFIERVLTEKEIKQFEKYEGNRKIEFLAGRFAAKEAYAKANGTGFGKHLSFTDVEILQVEDGRPHVTLPVKSGENVFVSITHTARSAAAQVIIEI”, the “soluble on expression in E. coli” value is “not soluble”.

As for “MIKGSCLCGDIRYTTEAAPQGASMCHCGQCRRQSGGVWSSAFVPEADLTITGPVSWFAASDTAKRGFCARCGSFLFWKANDEDTISFSLGSVDGPTGLRLTKHIFVAGKGDYYDIADDAPHKD”, the “soluble on expression in E. coli” value is “not soluble”.

Consider “MIKILQTKSGVTKFQVLIEIAAHQPNVRQKEIAAKIGITPQAVSEYIKELVNDGLIVTEGRVRYRITKEGVEWVLENATEMKQYARFVMEDIISHVSTWTAITREEVKEGQQVYLKMDHGLLYVSSREVTGASGAIISDAAEGEDVGVTSLKGLIDLENATITICKVPRVERGGSRKVDLERLKMLADAKPYIAAIGVESLIALRKIGISPNVMFGTNESVIEAAYHGLSSLVVSVDEQVSALLNRLETENLEYELVDLTVE”, for which the “soluble on expression in E. coli” value is “not soluble”.

As for “MIKNLITQQEGKTLEFKRDLSSPKSLLKSIVAFANTAGGHLIIGVNDERQIIGVEHPLDEEERLCNLIADSISPRLIPSIELVTLNNKTLLVIEVFVSNTGPHWINSEGSTQGIYVRLGSTNRQADQELITELHRRSEGVNFDEMPMPQLSVDDVDITKAQELFSDIKSLNEKNLLTLKLITSHQGKLVPTKGAILLFGKERNTYFPDAWVQCGRFIGKDKSRIFDHVDIYDYLPDAVESIMMFLKKHALRGADFSAVQRKDIWSIPLVMLREAVINALVHTDYSQRGAPIRISFFDDRIEIENPGILLPGLTIEDMRQGISKIRNHVIARVFRELNLIEQWGSGVSRIYSEAIEQKLQEPEIIEIGMRIRFIIYLAQGIPIDSTFDKRDKQLESRLESRLESRLESKLAARVIQVLQNGEAGKIQIARSLGHQTVSGELHKQIKQLLKLEIIEMTIPDKPNSRLQKYRLTNKGIDLINIIQRELAAALEHHHHHH”, the “soluble on expression in E. coli” value was “not soluble”.

For the sequence “MIKQDVICYEKEDVVKRNNINITGGGEKTVLLAHGFGCDQNMWRFMLPELEKQFTVIVFDYVGSGQSDLESFSTKRYSSLEGYAKDVEEILVALDLVNVSIIGHSVSSIIAGIASTHVGDRISDITMICPSPCFMNFPPDYVGGFERDDLEELINLMDKNYIGWANYLAPLVMGASHSSELIGELSGSFCTTDPIVAKTFAKATFFSDYRSLLEDISTPALIFQSAKDSLASPEVGQYMAENIPNSQLELIQAEGHCLHMTDAGLITPLLIHFIQNNQTRA”, the “soluble on expression in E. coli” value is recorded as “soluble”.

In the case of “MIKRKLQDLAVCCSYQVDFLHEKKHSVKEFKRKYEVLDEIGRGGFGIVYEATTRQDGQQPVAVKFVQHKHVRSWTMTCRQLIPSEVCHLETCEDIPGVIKILDWFANSKGFLIVMERPANCMDLFDMVSVHGPLNEDMGKFIFKQVITTVFNMYSKHGLLHRDIKDENLIVNMNTGEVKLVDFGATAYAEKATKKEFQGTRSYCPPEWFRDQLYLPLEATSWSLGVLLFILLTGKLPFRNEIQICLGNVKFPPDLSKEVCQLVKSCLTTSTSARASLAQIAAHPWMETDKPFFGGDLTFEEALMEIKNPPVVIEDKEAEEEDNDLNDVVILTRSRESRTDLDAESICTMVTAVEDRYEPSIAVKELEQEEIVETGETTNLMRSESRYDNISSSSFCDYVSLVSSSYDDQFTSTSDIYQSACEVFPHTGSSSSLSRSMGAVKSASAYNLVRMRKKSSIFKSFDTELDPVSENDHQPLIPETSSATCQSTYSNDEDVTISEKVVSPAQPLPPPLSPRKGSLQCFESVPRSRDSVIRMSRHRPLQFAIDSSSPPPALAIFQVSPTASVG”, the “soluble on expression in E. coli” value was “not soluble”.

In the case of “MIKRTLLLAMLPILAHAEELPAPVKAIEKQGITILKSFEAPGGMKGYLGKYQDMGVTIYLTPDGKHAISGYMYNEKGENLSNALIEKEIYAPAGREMWQKMEKASWILDGKKDAPVVLYVFADPFCPYCKQFWQQARPWVESGKVQLRTLLVGVIKPESPATAAAILAAKDPAKTWHDYEASAGKMKLEVPASIPPAQMKVINQNQQLMDDLGANATPAIYYMNKDKILQQVVGLPEKAQLDAMMGQP”, the “soluble on expression in E. coli” value is on record as “not soluble”.

Regarding “MIKWPWKAQEITQNEDWPWDDALAIPLLVNLTAQEQARLIALAERFLQQKRLVALQGFELDSLKSARIALIFCLPILELGIEWLDGFHEVLIYPAPFVVDDEWEDDIGLVHSQRVVQSGQSWQQGPIILNWLDIQDSFDASGFNLIIHEVAHKLDMRNGDRASGIPFIPLRDVAGWEHDLHAAMNNIQDEIDLVGESAASIDAYAATDPAECFAVLSEYFFSAPELFAPRFPALWQRFCQFYRQDPSQRLRVSAAEGDYGEESEH”, the “soluble on expression in E. coli” value was “not soluble”.

In the case of “MILERVEIVGFRGINRLSLMLEQNNVLIGENAWGKSSLLDALTLLLSPESDLYHFERDDFWFPPGDINGREHHLHIILTFRESLPGRHRVRRYRPLEACWTPCTDGYHRIFYRLEGESAEDGSVMTLRSFLDKDGHPIDVEDINDQARHLVRLMPVLRLRDARFMRRIRNGTVPNVPNVEVTARQLDFLARELSSHPQNLSDGQIRQGLSAMVQLLEHYFSEQGAGQARYRLMRRRASNEQRSWRYLDIINRMIDRPGGRSYRVILLGLFATLLQAKGTLRLDKDARPLLLIEDPETRLHPIMLSVAWHLLNLLPLQRIATTNSGELLSLTPVEHVCRLVRESSRVAAWRLGPSGLSTEDSRRISFHIRFNRPSSLFARCWLLVEGETETWVINELARQCGHHFDAEGIKVIEFAQSGLKPLVKFARRMGIEWHVLVDGDEAGKKYAATVRSLLNNDREAEREHLTALPALDMEHFMYRQGFSDVFHRVAQIPENVPMNLRKIISKAIHRSSKPDLAIEVAMEAGRRGVDSVPTLLKKMFSRVLWLARGRAD”, the “soluble on expression in E. coli” value is given as “not soluble”.

Regarding “MILFDFKDLSAATSWYGVNDTVMGGLSRSKLTISPLGYGIFSGHVSLANGGGFASVRCEFEHVNVAEFTGIYLDLDSDRSKQYKVNLKDADTPQSTVYQAIMPAPTHQTFGLSGASAIHWQRIEIPFTNFHPQCRGKPIAGAAIDLRRLTSIGLVIGAQQSGDFALKIKSIGCYLEHHHHHH”, the “soluble on expression in E. coli” value is given as “soluble”.

With “MILGPDGKPIKKPETSEIARVLHTFSAFMKSLPNPDIILKKTGKTAEIFEEMKTDAHVWAELTKRKSGVLSKDWDILPASNDRRDLEIAAFVKETFERLNFDQDMRTKTCGKCSMPCSRAGTCTN”, the “soluble on expression in E. coli” value is given as “not soluble”.

For “MIMRWGEKRYHSLDYELKQMFKEKVYKIALNGGMTCPNRDGHVGTGGCIFCSSQGSGDFAGSARLSIAEQIRQGKADISSKRPVHSYIAYFQAFTNTYAPVETLRALYMEAIADPEVKILSIATRPDCLGADVLALLDEINQIKPVWVELGLQTIHPETSAYIRRGYELSVFEQAVKELRAIGITVIVHTILYLPGETKDDMLDTIHYLNHMDIQGIKLQLLHVLTHTDLAADYEKHPFYIPDMQDYIQFLGTCIAHLNPEIVIHRLTGDGPKDLLIAPLWTSNKRTVLNQLHSHLKEQDIWQGKEYYV”, the “soluble on expression in E. coli” value is “not soluble”.

As to “MIMTNINTACVKNNASYQLNNALPNKETISSNFCERLEQWGNKSVNNGEERAIAVERIKEAYNSNMASLDLSYLDLSELPPIPSTVNTLNLENNCLTCLDLADNASLVNINLSVNKINTITFPKEPKLENIYINHNNLESLDLKNQHSLVNLEAQNNSLKKLEHHHHHH”, the “soluble on expression in E. coli” value was “not soluble”.

On to “MIMVNNDAVVRNVYHKYFHPKEALVSSGVLNREISRAAGKAVPGIIDEESSGNNAQ”, for which the “soluble on expression in E. coli” value was “soluble”.

Turning to “MIMVSGCQQQKEETPFYYGTWDEGRAPGPTDGVKSATVTFTEDEVVETEVMEGRGEVQLPFMAYKVISQSTDGSIEIQYLGPYYPLKSTLKRGENGTLIWEQNGQRKTMTRIESKTGREEKDEKSKSLEHHHHHH”, the “soluble on expression in E. coli” value is “soluble”.

For the sequence “MINNDLLRRISNIFDLTDETILTTFALSQCEISAEQLTNFFKEKDDTAYQPLEDVQFASFLNGLIIAKRGPSDGPERPVEEELTNNMIFNKVKIALSLKAEEVIATLELADLSLGKYELSAFFRNVNNKHYKDCSDEVLSAFLKGLKIKSK”, the “soluble on expression in E. coli” value is on record as “not soluble”.

“MINQNATYMEESAQSAVDNFGLGFNLGNTLDANGCGTGKPVATYETFWGQPETTQDMMTFLMQNGFNAVRIPVTWYEHMDAEGNVDEAWMMRVKAIVEYAMNAGLYAIVNVHHDTAAGSGAWIKADTDVYAATKEKFKKLWTQIANALADYDQHLLFEGYNEMLDGNNSWDEPQKASGYEALNNYAQDFVDAVRATGGNNATRNLIVNTYAAAKGENVLNNFMLPTDAVNNHLIVQVHSYDPWNFFNTKTTWDSECHNTLTEIFSALSKKFTTIPYIIGEYGTHGESDISVSKSSPAEKIKLAADQAADMVKLAKDHHSATFYWMSIFDGSDRIQPQWSLPTVVEAMQEAYNN”: the “soluble on expression in E. coli” value was “soluble”.

For the sequence “MINRNEEQNFNKLSEVINEYNKLQISQQIDYDKFYLYSIITHSTAIEGSTITEIENQLLFDEGISANKPIHEQLMNLDLKAAYEKSFELAKQHTQITPEILCELSVLVMKNTGTVYNTIGGTFSSAKGELRLVNVSAGRGGKSYMAWQKLPQKLEEFCSWLNSERKSIAEKDIEAQYAFSFLAHYKLVHIHPWADGNGRMSRLLMNVIQYEAGLVPAIIKKENRAEYIQSLASSQDKDDPAEFLHFMFSHHIRNLSEQIEEYKNSLEMSGS”, the “soluble on expression in E. coli” value is listed as “not soluble”.

As to “MINYPNLPNSALEITEQPEVKEITNELLKQLQNALNSNSLFSEQVELSLKGIVRILEVLLSLDFFKNANEIDSSLRNSIEWLNNAGESLKTKMKEYEGFFSDFNTSMRTNEQEVSATLNANTENIKSEIKKLENQLIETTTRLLTSYQIFLNNARDSANNQITANKTESLEALNQAKTSANNEITANQTQALTNINEAKENANNQITENKTQAITNINEAKNQSLSKH”, the “soluble on expression in E. coli” value is on record as “not soluble”.
